Positions of bridges follow the written chain, without caps; N, C: chain ends. Non-standard residues stand in square brackets, D forms with d.

Sequences and labels used below:
B1: GD20-F10L (peptide)
peptide: {CH2CO}-[dY]LITFRQWALNLPCG-NH2
modifications: thioether N-14
SMILES: CC[C@H](C)[C@@H]1NC(=O)[C@H](CC(C)C)NC(=O)[C@@H](Cc2ccc(O)cc2)NC(=O)CSC[C@@H](C(=O)NCC(N)=O)NC(=O)[C@@H]2CCCN2C(=O)[C@H](CC(C)C)NC(=O)[C@H](CC(N)=O)NC(=O)[C@H](CC(C)C)NC(=O)[C@H](C)NC(=O)[C@H](Cc2c[nH]c3ccccc23)NC(=O)[C@H](CCC(N)=O)NC(=O)[C@H](CCCNC(=N)N)NC(=O)[C@H](Cc2ccccc2)NC(=O)[C@H]([C@@H](C)O)NC1=O
notes: Single substitution F10L of GD20; also called cell permeable GD20 analog F10L
B2: GN3 (peptide)
peptide: {CH2CO}-[dY]NWSNQFDWFLDLCG-NH2
modifications: thioether N-14
SMILES: CC(C)C[C@@H]1NC(=O)[C@H](CC(=O)O)NC(=O)[C@H](CC(C)C)NC(=O)[C@H](Cc2ccccc2)NC(=O)[C@H](Cc2c[nH]c3ccccc23)NC(=O)[C@H](CC(=O)O)NC(=O)[C@H](Cc2ccccc2)NC(=O)[C@H](CCC(N)=O)NC(=O)[C@H](CC(N)=O)NC(=O)[C@H](CO)NC(=O)[C@H](Cc2c[nH]c3ccccc23)NC(=O)[C@H](CC(N)=O)NC(=O)[C@@H](Cc2ccc(O)cc2)NC(=O)CSC[C@@H](C(=O)NCC(N)=O)NC1=O
B3: GN6 (peptide)
peptide: Ac-[dY]CFYEVWPYYLPCG-NH2
modifications: thioether (positions not given here); also: thioether partner Cys2 or Cys13 not settled
B4: GN11 (peptide)
peptide: {CH2CO}-[dY]LTNWGVYWDQYWCG-NH2
modifications: thioether N-14
SMILES: CC(C)C[C@@H]1NC(=O)[C@@H](Cc2ccc(O)cc2)NC(=O)CSC[C@@H](C(=O)NCC(N)=O)NC(=O)[C@H](Cc2c[nH]c3ccccc23)NC(=O)[C@H](Cc2ccc(O)cc2)NC(=O)[C@H](CCC(N)=O)NC(=O)[C@H](CC(=O)O)NC(=O)[C@H](Cc2c[nH]c3ccccc23)NC(=O)[C@H](Cc2ccc(O)cc2)NC(=O)[C@H](C(C)C)NC(=O)CNC(=O)[C@H](Cc2c[nH]c3ccccc23)NC(=O)[C@H](CC(N)=O)NC(=O)[C@H]([C@@H](C)O)NC1=O
B5: GN7 (peptide)
peptide: {CH2CO}-[dY]SWPNQFDWFIELCG-NH2
modifications: thioether N-14
SMILES: CC[C@H](C)[C@@H]1NC(=O)[C@H](Cc2ccccc2)NC(=O)[C@H](Cc2c[nH]c3ccccc23)NC(=O)[C@H](CC(=O)O)NC(=O)[C@H](Cc2ccccc2)NC(=O)[C@H](CCC(N)=O)NC(=O)[C@H](CC(N)=O)NC(=O)[C@@H]2CCCN2C(=O)[C@H](Cc2c[nH]c3ccccc23)NC(=O)[C@H](CO)NC(=O)[C@@H](Cc2ccc(O)cc2)NC(=O)CSC[C@@H](C(=O)NCC(N)=O)NC(=O)[C@H](CC(C)C)NC(=O)[C@H](CCC(=O)O)NC1=O
B6: GN8 (peptide)
peptide: {CH2CO}-[dY]QYTYPYLVIDWTCG-NH2
modifications: thioether N-14
SMILES: CC[C@H](C)[C@@H]1NC(=O)[C@H](C(C)C)NC(=O)[C@H](CC(C)C)NC(=O)[C@H](Cc2ccc(O)cc2)NC(=O)[C@@H]2CCCN2C(=O)[C@H](Cc2ccc(O)cc2)NC(=O)[C@H]([C@@H](C)O)NC(=O)[C@H](Cc2ccc(O)cc2)NC(=O)[C@H](CCC(N)=O)NC(=O)[C@@H](Cc2ccc(O)cc2)NC(=O)CSC[C@@H](C(=O)NCC(N)=O)NC(=O)[C@H]([C@@H](C)O)NC(=O)[C@H](Cc2c[nH]c3ccccc23)NC(=O)[C@H](CC(=O)O)NC1=O
B7: GN15 (peptide)
peptide: {CH2CO}-[dY]KYWDFDNFQELYCG-NH2
modifications: thioether N-14
SMILES: CC(C)C[C@@H]1NC(=O)[C@H](CCC(=O)O)NC(=O)[C@H](CCC(N)=O)NC(=O)[C@H](Cc2ccccc2)NC(=O)[C@H](CC(N)=O)NC(=O)[C@H](CC(=O)O)NC(=O)[C@H](Cc2ccccc2)NC(=O)[C@H](CC(=O)O)NC(=O)[C@H](Cc2c[nH]c3ccccc23)NC(=O)[C@H](Cc2ccc(O)cc2)NC(=O)[C@H](CCCCN)NC(=O)[C@@H](Cc2ccc(O)cc2)NC(=O)CSC[C@@H](C(=O)NCC(N)=O)NC(=O)[C@H](Cc2ccc(O)cc2)NC1=O
B8: GN1 (peptide)
peptide: {CH2CO}-[dY]QFIEVWPFYLPCG-NH2
modifications: thioether N-13
SMILES: CC[C@H](C)[C@@H]1NC(=O)[C@H](Cc2ccccc2)NC(=O)[C@H](CCC(N)=O)NC(=O)[C@@H](Cc2ccc(O)cc2)NC(=O)CSC[C@@H](C(=O)NCC(N)=O)NC(=O)[C@@H]2CCCN2C(=O)[C@H](CC(C)C)NC(=O)[C@H](Cc2ccc(O)cc2)NC(=O)[C@H](Cc2ccccc2)NC(=O)[C@@H]2CCCN2C(=O)[C@H](Cc2c[nH]c3ccccc23)NC(=O)[C@H](C(C)C)NC(=O)[C@H](CCC(=O)O)NC1=O
notes: the number is its rank in the selection

The target of the first assay is T1, Biotinylated Avi-tagged WT Gαs (residues 7-380 of the short isoform of human Gαs), GDP-bound (human, UniProt P63092 7-394, biotin on the Avi tag (BirA)).
T1 construct: Loaded with GDP; Same polypeptide as m7, other nucleotide state; also called biotinylated Gαs WT
T1 sequence (P63092 other isoform, or with tags, fused parts or gaps limits assumed): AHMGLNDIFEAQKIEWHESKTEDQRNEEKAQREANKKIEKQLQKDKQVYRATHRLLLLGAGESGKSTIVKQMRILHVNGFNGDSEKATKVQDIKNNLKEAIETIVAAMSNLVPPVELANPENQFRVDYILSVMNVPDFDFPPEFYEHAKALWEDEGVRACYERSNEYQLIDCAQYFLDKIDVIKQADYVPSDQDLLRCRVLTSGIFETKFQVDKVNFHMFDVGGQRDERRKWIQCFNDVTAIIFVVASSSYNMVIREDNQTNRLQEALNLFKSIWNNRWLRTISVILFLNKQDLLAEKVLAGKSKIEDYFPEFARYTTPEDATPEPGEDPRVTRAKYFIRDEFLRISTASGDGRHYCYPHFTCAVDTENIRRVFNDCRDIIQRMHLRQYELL
Nature of the assay: TR-FRET competition: biotinylated GDP-bound Gαs WT against His-Gβγ(C68S). The protocol: (§1) Biotinylated avi-Gαs (6-end, WT) and avi-Gαi (FL, WT) were diluted to 32 nM (8×) using assay buffer (1× PBS 7.4, 2 mM DTT, 0.1% BSA, 2 mM MgCl₂, 0.05% Tween plus 0.5 mM GDP), followed by mixing with a same volume of 8× streptavidin XL665 stock (32 nM in the assay buffer). 8× His-Gβ/γ (C68S) stock (16 nM) and 8× anti-6His-Tb cryptate stock (0.4 μg/mL) were added into the Gα/XL665 mixtures. Finally, 2× stocks of cyclic peptides were added with the protein mixtures. After incubation at room temperature for 2 hour at room temperature. […] FRET Signal was calculated as the ratio of [Read B]/[Read A].
(In general: Time-resolved FRET reads energy transfer from a long-lived donor to a nearby acceptor.)
B1 displayed an IC50 of 14 nM.

Another assay addresses T1, Biotinylated Avi-tagged WT Gαs …. Nature of the assay: TR-FRET competition: biotinylated Gαs or Gαi (GDP) against His-Gβγ(C68S). Here is the method:
as §1
B1: the “fold selectivity for Gαs over Gαi” value is 100 fold.

The target of another assay is T2, Biotinylated His/Avi-tagged Gαs used in the RaPID selection, GppNHp-bound (human, UniProt P63092 7-394, biotin on the Avi tag (BirA co-expressed)).
T2 construct: Immobilized on streptavidin magnetic beads
T2 sequence (P63092 other isoform, or with tags, fused parts or gaps limits assumed): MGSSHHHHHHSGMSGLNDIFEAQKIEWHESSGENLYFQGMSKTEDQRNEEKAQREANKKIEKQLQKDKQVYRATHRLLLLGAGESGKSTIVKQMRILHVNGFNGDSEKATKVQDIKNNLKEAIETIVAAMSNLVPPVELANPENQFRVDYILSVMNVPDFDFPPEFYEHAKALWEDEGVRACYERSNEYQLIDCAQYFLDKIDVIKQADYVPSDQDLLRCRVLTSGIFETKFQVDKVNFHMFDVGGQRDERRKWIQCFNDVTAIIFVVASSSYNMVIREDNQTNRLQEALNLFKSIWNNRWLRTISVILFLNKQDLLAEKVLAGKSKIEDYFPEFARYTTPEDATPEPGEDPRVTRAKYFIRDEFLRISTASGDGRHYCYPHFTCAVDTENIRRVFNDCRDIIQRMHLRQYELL
Nature of the assay: RaPID comparison selection: peptide-mRNA-cDNA complexes on Gαs-immobilized streptavidin beads, qPCR and sequencing.
For B2, the “fold selectivity for GppNHp-bound over GDP-bound Gαs” value (“fold selectivity for GppNHp-bound” for short) is greater than 100 fold.

For B3, the “fold selectivity for GppNHp-bound” value is greater than 100 fold.

Take B4: the “fold selectivity for GppNHp-bound” value was greater than 100 fold.

As to B5, the “fold selectivity for GppNHp-bound” value is greater than 100 fold.

Turning to B6, the “fold selectivity for GppNHp-bound” value is greater than 100 fold.

Consider B7, for which the “fold selectivity for GppNHp-bound” value is greater than 100 fold.

As for B8, the “fold selectivity for GppNHp-bound” value is greater than 100 fold.

Broadly, the IC50 is the concentration needed to halve the response being measured. Low readings indicate higher potency, high ones lower potency.
